What was measured:
[1] = tested on: miR-205; assay: Stem-loop qRT-PCR of mature miRNA in Wnt-1-expressing Comma-Dβ cells; type: cell-based, mouse; conditions: data not shown
Protocol: 1-4 μg of total RNA from sorted cells was used for small RNA cloning performed as described in Pfeffer et al, 2005 (incorporated by reference). Illumina 1G sequencing and analysis was performed as described Stark et al. 2007 (incorporated by reference). miRNA expression analyses mature miRNAs were quantified using the TaqMan MicroRNA Assays previously described by Chen et al., 2005 (Applied Biosystems, incorporated by reference).
Data was normalized to Actin using SuperScript III SYBR Green One-Step qRT-PCR system (Invitrogen). The experiments were repeated twice and all reactions were run in triplicate.

[2] = tested on: Comma-Dβ cells; assay: ALDEFLUOR / Sca-1 FACS analysis of Comma-Dβ cell compartments; type: cell-based, mouse; conditions: ectopic expression in Comma-Dβ cells

B1: Wnt-1: Wnt-1 ectopically expressed from an MSCV-hygro vector (Wnt-1MSCV) (protein, UniProt P04426 28-370, looked up)
Proto-oncogene Wnt-1: ANSSGRWWGIVNIASSTNLLTDSKSLQLVLEPSLQLLSRKQRRLIRQNPGILHSVSGGLQSAVRECKWQFRNRRWNCPTAPGPHLFGKIVNRGCRETAFIFAITSAGVTHSVARSCSEGSIESCTCDYRRRGPGGPDWHWGGCSDNIDFGRLFGREFVDSGEKGRDLRFLMNLHNNEAGRTTVFSEMRQECKCHGMSGSCTVRTCWMRLPTLRAVGDVLRDRFDGASRVLYGNRGSNRASRAELLRLEPEDPAHKPPSPHDLVYFEKSPNFCTYSGRLGTAGTAGRACNSSSPALDGCELLCCGRGHRTRTQRVTERCNCTFHWCCHVSCRNCTHTRVLHECL
For B1, the “miR-205 level compared to empty vector control cells” value [1] was 6 fold and the “increase in the ALDH bright Sca-1 high population” value [2] was 3.5 fold.
